Experimental data published in paper PMC5344418, “Directed evolution of a soluble human DR3 receptor for the inhibition of TL1A induced cytokine secretion” (PLoS ONE, 2017).

T1: TNF-like 1A (TL1A) (UniProt O95150 72-251)
T1 construct: TL1A (TNF-like 1A), the cytokine run over immobilised DR3 variants in SPR and added to cells; also called TL1A cytokine
T1 sequence (looked up): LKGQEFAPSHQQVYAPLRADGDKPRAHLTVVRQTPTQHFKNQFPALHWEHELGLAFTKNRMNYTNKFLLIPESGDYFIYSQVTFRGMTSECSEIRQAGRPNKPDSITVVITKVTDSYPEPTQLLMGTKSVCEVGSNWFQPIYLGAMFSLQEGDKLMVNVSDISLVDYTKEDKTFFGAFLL


Key:
Assay in all cases: SPR; ProteOn XPR36; DR3 variants (5 ug, acetate buffer pH 5.5) immobilised on a GLC chip, BSA as reference; TL1A run at 100, 50, 25, 12.5 and 6.25 nM, 30 ul/min, 300 s, 10 min dissociation; PBS with 2 mM DTT; Langmuir single binding site model
[1] = molecular target: DR3 variant H3 (DR3 extracellular domain-Fc) (human) (UniProt Q93038)
[2] = molecular target: DR3 variant O6 (DR3 extracellular domain-Fc) (human) (UniProt Q93038)
TNF-like 1A (TL1A) = molecular target: T1, TNF-like 1A (TL1A); conditions: both partners purified

Row | Kd [1] | koff [1] | kon [1] | Kd [2] | koff [2] | kon [2] | Kd (TNF-like 1A (TL1A)) | koff (TNF-like 1A (TL1A)) | kon (TNF-like 1A (TL1A)) | Molecule
1 | 8.26 nM | 0.000351 s⁻¹ | 42600 M⁻¹ s⁻¹ | 9.83 nM | 0.000357 s⁻¹ | 36300 M⁻¹ s⁻¹ | – | – | – | TNF-like 1A (TL1A) (from UniProt O95150 72-251) (ligand)
2 | – | – | – | – | – | – | 44.9 nM | 0.00072 s⁻¹ | 16000 M⁻¹ s⁻¹ | native DR3-Fc (human DR3 extracellular domain fused with human IgG1 Fc) (Fc fusion, UniProt Q93038 25-199, looked up, N-linked glycosylation (shown by Endo-H cleavage), amplified from an EST cDNA clone (Open Biosystems); pFUSE vector (Invivogen); also called WT; soluble native DR3; source: HEK293T, transfected, conditioned medium (ELISA screen); 293F (HEK293F), transfected, purified (MonoQ, SP, butyl HIC); not shown: Fc (human IgG1), C-terminal, kept) QGGTRSPRCDCAGDFHKKIGLFCCRGCPAGHYLKAPCTEPCGNSTCLVCPQDTFLAWENHHNSECARCQACDEQASQVALENCSAVADTRCGCKPGWFVECQVSQCVSSSPFYCQPCLDCGALHRHTRLLCSRRDTDCGTCLPGFYEHGDGCVSCPTSTLGSCPERCAAVCGWRQ
